Results from the supplement of paper PMC10567573.

B1: DLC1 (parent)
chain: KRSWEEHVTHWMGQPFNSDDRNTA

Variants of: B1
Assay: protein stability index of a GFP-peptide fusion (GPS, HEK-293T) (PSI 1-6); higher = more stable
Conditions: c terminus: a fixed tail appended
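Also: lentivirally expressed fusions sorted by FACS into six bins by GFP to DsRed ratio, PSI derived from sequencing read proportions per bin multiplied by bin number.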

Variant	protein stability index
KRSWEEHVTHWFGQPFNSDDRNTA	2.94
KRSWEEHVTHWMGQPFRSDDRNTA	1.64
KRSWEEHVTHWMGQPFASDDRNTA	2.64
KRSWEEHVTHWMGQPFFSDDRNTA	2.77
KRSWEEHVTHWMGQPFGSDDRNTA	2.44
KRSWEEHVTHWMGQPFESDDRNTA	2.52
KRSWEEHVTHWMGQPFMSDDRNTA	2.15
KRSWEEHVTHWMGQPFDSDDRNTA	3.03
KRSWEEHVTHWMGQPFSSDDRNTA	2.63
KRSWEEHVTHWMGQPFLSDDRNTA	2.44
KRSWEEHVTHWMGQPFTSDDRNTA	3.4
KRSWEEHVTHWMGQPFKSDDRNTA	2.1
KRSWEEHVTHWMGQPFVSDDRNTA	2.26
KRSWEEHVTHWMGQPFHSDDRNTA	2.73
KRSWEEHVTHWMGQPFQSDDRNTA	3.12
KRSWEEHVTHWMGQPFCSDDRNTA	2.23
KRSWEEHVTHWMGQPFISDDRNTA	2.38
KRSWEEHVTHWMGQPFPSDDRNTA	2.73
KRSWEEHVTHWMGQPFWSDDRNTA	2.77
KRSWEEHVTHWMGQPFYSDDRNTA	2.36
KRSWEEHVTHWMGQPFNSFDRNTA	1.85
KRSWEEHVTHWMGQPFNSQDRNTA	2.65
KRSWEEHVTHWMGQPFNSMDRNTA	2.88
KRSWEEHVTHWMGQPFNSKDRNTA	2.61

Variant	protein stability index
KRSWEEHVTHWMGQPFNSADRNTA	2.67
KRSWEEHVTHWMGQPFNSHDRNTA	2.29
KRSWEEHVTHWMGQPFNSEDRNTA	2.76
KRSWEEHVTHWMGQPFNSNDRNTA	2.69
KRSWEEHVTHWMGQPFNSRDRNTA	2.54
KRSWEEHVTHWMGQPFNSIDRNTA	3.12
KRSWEEHVTHWMGQPFNSGDRNTA	2.25
KRSWEEHVTHWMGQPFNSLDRNTA	2.12
KRSWEEHVTHWMGQPFNSPDRNTA	2.73
KRSWEEHVTHWMGQPQNSDDRNTA	2.41
KRSWEEHVTHWMGQPSNSDDRNTA	3.07
KRSWEEHVTHWMGQPVNSDDRNTA	3.34
KRSWEEHVTHWMGQPGNSDDRNTA	3.14
KRSWEEHVTHWMGQPCNSDDRNTA	2.66
KRSWEEHVTHWMGQPWNSDDRNTA	2.35
KRSWEEHVTHWMGQPKNSDDRNTA	2.97
KRSWEEHVTHWMGQPHNSDDRNTA	2.77
KRSWEEHVTHWMGQPTNSDDRNTA	2.37
KRSWEEHVTHWMGQPANSDDRNTA	2.54
KRSWEEHVTHWMGQPYNSDDRNTA	2.69
KRSWEEHVTHWMGQPLNSDDRNTA	3.55
KRSWEEHVTHWMGQPINSDDRNTA	2.63
KRSWEEHVTHWMGQPDNSDDRNTA	2.59
KRSWEEHVTHWMGQPPNSDDRNTA	2.68

Variant	protein stability index
KRSWEEHVTHWMGQPMNSDDRNTA	2.94
KRSWEEHVTHWMGQPRNSDDRNTA	2.27
KRSWEEHVTHWMGQPENSDDRNTA	3.08
KRSWEEHVTHWMGQPNNSDDRNTA	3.62
KRSWEEHVTHWMGQPFNHDDRNTA	2.66
KRSWEEHVTHWMGQPFNADDRNTA	3.48
KRSWEEHVTHWMGQPFNEDDRNTA	2.97
KRSWEEHVTHWMGQPFNLDDRNTA	2.03
KRSWEEHVTHWMGQPFNWDDRNTA	2.01
KRSWEEHVTHWMGQPFNRDDRNTA	2.1
KRSWEEHVTHWMGQPFNKDDRNTA	3.12
KRSWEEHVTHWMGQPFNQDDRNTA	3.02
KRSWEEHVTHWMGQPFNIDDRNTA	2.61
KRSWEEHVTHWMGQPFNDDDRNTA	3.1
KRSWEEHVTHWMGQPFNMDDRNTA	2.92
KRSWEEHVTHWMGQPFNGDDRNTA	2.76
KRSWEEHVTHWMGQPFNFDDRNTA	2.27
KRSWEEHVTHWMGQPFNPDDRNTA	3.11
KRSWEEHVTHWMGQPFNVDDRNTA	2.31
KRSWEEHVTHWMGQPFNCDDRNTA	2.34
KRSWEEHVTHWMGQPFNYDDRNTA	2.26
KRSWEEHVTHWMGQPFNTDDRNTA	3.21
KRSWEEHVTAWMGQPFNSDDRNTA	2.17
KRSWEEHVTIWMGQPFNSDDRNTA	1.95

Variant	protein stability index
KRSWEEHVTFWMGQPFNSDDRNTA	1.92
KRSWEEHVTQWMGQPFNSDDRNTA	2.56
KRSWEEHVTPWMGQPFNSDDRNTA	3.52
KRSWEEHVTLWMGQPFNSDDRNTA	2.33
KRSWEEHVTMWMGQPFNSDDRNTA	1.99
KRSWEEHVTVWMGQPFNSDDRNTA	2.16
KRSWEEHVTSWMGQPFNSDDRNTA	2.73
KRSWEEHVTDWMGQPFNSDDRNTA	3.39
KRSWEEHVTYWMGQPFNSDDRNTA	1.92
KRSWEEHVTTWMGQPFNSDDRNTA	2.32
KRSWEEHVTCWMGQPFNSDDRNTA	2.92
KRSWEEHVTEWMGQPFNSDDRNTA	3.1
KRSWEEHVTGWMGQPFNSDDRNTA	2.57
KRSWEEHVTKWMGQPFNSDDRNTA	2.53
KRSWEEHVTWWMGQPFNSDDRNTA	2.31
KRSWEEHVTRWMGQPFNSDDRNTA	2.19
KRSWEEHVTNWMGQPFNSDDRNTA	2.58
KRSWEEHVRHWMGQPFNSDDRNTA	3.1
KRSWEEHVVHWMGQPFNSDDRNTA	2.75
KRSWEEHVWHWMGQPFNSDDRNTA	2.67
KRSWEEHVYHWMGQPFNSDDRNTA	3.04
KRSWEEHVSHWMGQPFNSDDRNTA	2.38
